Data reported in FireProtDB (doi:10.1021/bi050342n).

B1: Azurin, P00282 (parent)
chain: MLRKLAAVSLLSLLSAPLLAAECSVDIQGNDQMQFNTNAITVDKSCKQFTVNLSHPGNLPKNVMGHNWVLSTAADMQGVVTDGMASGLDKDYLKPDDSRVIAHTKLIGSGEKDSVTFDVSKLKEGEQYMFFCTFPGHSALMKGTLTLK

Variants of: B1
Conditions: Pseudomonas aeruginosa (strain ATCC 15692 / DSM 22644 / CIP 104116 / JCM 14847 / LMG 12228 / 1C / PRS 101 / PAO1); pH 7; 25 °C; GdnHCl; Fluorescence, CD; Tris-HCl 100 mM; reversible: Yes; structure 5AZU; whole UniProt chain shown

| Variant | ddG of mutation (higher = less stable) [kcal/mol] | denaturant m value [kcal/mol/M] | unfolding free energy [kcal/mol] |
| --- | --- | --- | --- |
| MLRKLAAVSLLSLLSAPLLAAECSVDIQGNDQMQFNTNAITVDKSCKQFTVNLSHPGNLPKNVMGHNWVLSTAADMQGVVTDGMASGLDKDYLKPDDSRVIAHTKLIGSGEKDSVTFDVSKLKEGEQAMFFCTFPGHSALMKGTLTLK | 3.59 | 4.42 | 9.32 |
| MLRKLAAVSLLSLLSAPLLAAECSVDIQGNDQMQFNTNAITVDKSCKQFTVNLSHPGNLPKNVMGHNWVASTAADMQGVVTDGMASGLDKDYLKPDDSRVIAHTKLIGSGEKDSVTFDVSKLKEGEQYMFFCTFPGHSALMKGTLTLK | 1.79 | 4.42 | 11.1 |
| MLRKLAAVSLLSLLSAPLLAAECSVDIQGNDQMQFNTNAITVDKSCKQFTVNLSHPGNLPKNVMGHNWVLSTAADMQGVVTDGMASGLDKDYLKPDDSRVIAHTKLIGSGEKDSATFDVSKLKEGEQYMFFCTFPGHSALMKGTLTLK | 0.96 | 4.3 | 11.9 |
| MLRKLAAVSLLSLLSAPLLAAECSADIQGNDQMQFNTNAITVDKSCKQFTVNLSHPGNLPKNVMGHNWVLSTAADMQGVVTDGMASGLDKDYLKPDDSRVIAHTKLIGSGEKDSVTFDVSKLKEGEQYMFFCTFPGHSALMKGTLTLK | 0.96 | 4.06 | 11.9 |
| MLRKLAAVSLLSLLSAPLLAAECSVDIQGNDQMQFNTNAITADKSCKQFTVNLSHPGNLPKNVMGHNWVLSTAADMQGVVTDGMASGLDKDYLKPDDSRVIAHTKLIGSGEKDSVTFDVSKLKEGEQYMFFCTFPGHSALMKGTLTLK | 1.67 | 4.54 | 11.2 |
| MLRKLAAVSLLSLLSAPLLAAECSVDIQGNDQMQFNTNAITVDKSCKQFTVNLSHPGNLPKNVMGHNWVLSTAADMQGVVTDGMASGLDKDYLKPDDSRVIGHTKLIGSGEKDSVTFDVSKLKEGEQYMFFCTFPGHSALMKGTLTLK | 1.67 | 4.3 | 11.2 |
| MLRKLAAVSLLSLLSAPLLAAECSVDIQGNDQMQFNTNAITVDKSCKQFTVNLSHPGNLPKNVMGHNWVLSTAADMQGVVTDGMASGLDKDYLKPDDSRVAAHTKLIGSGEKDSVTFDVSKLKEGEQYMFFCTFPGHSALMKGTLTLK | 1.43 | 4.78 | 11.5 |
| MLRKLAAVSLLSLLSAPLLAAECSVDIQGNDQMQFNTNAITVDKSCKQFTVNLSHPGNLPKNVMGHNWVLSTAADMQGVVTDGMASGLDKDYLKPDDSRVIAHTKLIGSGEKDSVTFDVSKLKEGEQYMFFCTFPGHSALAKGTLTLK | 2.87 | 4.18 | 10 |
| MLRKLAAVSLLSLLSAPLLAAECSVDIQGNDQMQFNTNAATVDKSCKQFTVNLSHPGNLPKNVMGHNWVLSTAADMQGVVTDGMASGLDKDYLKPDDSRVIAHTKLIGSGEKDSVTFDVSKLKEGEQYMFFCTFPGHSALMKGTLTLK | 2.39 | 4.54 | 10.5 |
| MLRKLAAVSLLSLLSAPLLAAECSVDIQGNDQMQFNTNAITVDKSCKQFTVNLSHPGNLPKNVMGHNWVLSTAADMQGVGTDGMASGLDKDYLKPDDSRVIAHTKLIGSGEKDSVTFDVSKLKEGEQYMFFCTFPGHSALMKGTLTLK | 3.11 | 4.18 | 9.8 |
| MLRKLAAVSLLSLLSAPLLAAECSVDIQGNDQMQFNTNAITVDKSCKQFTANLSHPGNLPKNVMGHNWVLSTAADMQGVVTDGMASGLDKDYLKPDDSRVIAHTKLIGSGEKDSVTFDVSKLKEGEQYMFFCTFPGHSALMKGTLTLK | 1.67 | 4.54 | 11.2 |
| MLRKLAAVSLLSLLSAPLLAAECSVDIQGNDQMQFNTNAITVDKSCKQFTVNLSHPGNLPKNVMGHNWVLSTAADMQGVVTDGMASGLDKDYLKPDDSRVIAHTKLIGSGEKDSVTFDVSKLKEGEQYMFFCTFPGHSALMKGTATLK | 1.67 | 4.54 | 11.2 |
| MLRKLAAVSLLSLLSAPLLAAECSVDIQGNDQMQFNTNAITVDKSCKQFTVNASHPGNLPKNVMGHNWVLSTAADMQGVVTDGMASGLDKDYLKPDDSRVIAHTKLIGSGEKDSVTFDVSKLKEGEQYMFFCTFPGHSALMKGTLTLK | 1.67 | 4.78 | 11.2 |
| MLRKLAAVSLLSLLSAPLLAAECSVDIQGNDQMQFNTNAITVDKSCKQFTVNLSHPGNLPKNVMGHNAVLSTAADMQGVVTDGMASGLDKDYLKPDDSRVIAHTKLIGSGEKDSVTFDVSKLKEGEQYMFFCTFPGHSALMKGTLTLK | 3.35 | 4.78 | 9.56 |
| MLRKLAAVSLLSLLSAPLLAAECSVDAQGNDQMQFNTNAITVDKSCKQFTVNLSHPGNLPKNVMGHNWVLSTAADMQGVVTDGMASGLDKDYLKPDDSRVIAHTKLIGSGEKDSVTFDVSKLKEGEQYMFFCTFPGHSALMKGTLTLK | 3.35 | 4.3 | 9.56 |
